# Where “and” joins values, the source holds several entries; their conditions need not be identical. Equal values may be shown once.
# Test system: OC1OC[C@@H](O)[C@H](O)[C@H]1O
# Experiment: cells, lysate or membranes named
# Conditions: other: xylose 5 to 250 mM, pH 7.5, 30° C., 10 mM MgCl2, crude yeast extract, Hanes-Woolf plot
substance,measurement,value
"Piromyces sp. E2 xylose isomerase PiXI-O (PiXI; codon optimized gene PiXI-O, SEQ ID NO: 46), expressed in yeast (Piromyces sp. E2)",Km,40 mM and 39.87 ± 7.43 mM
